The record followed here is patent US9895420.

The target of the data set is chimeric-IL-1Ra (IL-1beta propeptide residues 1-120, HindIII-derived Lys-Leu linker, mature IL-1Ra).

B1: neutrophil elastase (Athens Research & Technology) (protein)
chain: IVGGRRARPHAWPFMVSLQLRGGHFCGATLIAPNFVMSAAHCVANVNVRAVRVVLGAHNLSRREPTRQVFAVQRIFENGYDPVNLLNDIVILQLNGSATINANVQVAQLPAQGRRLGNGVQCLAMGWGLLGRNRGIASVLQELNVTVVTSLCRRSNVCTLVRGRQAGVCFGDSGSPLVCNGLIHGIASFVRGGCASGLYPDAFAPVAQFVNWIDSIIQ
With B1, the “cleavage of chimeric-IL-1Ra, Western blot with anti-IL-1Ra antibody” value is given as “chimeric-IL-1Ra is cleaved to form a ˜20 kDa fragment, comparable in size to IL-1Ra”.
